For this data set, the target named is carcinoembryonic antigen (CEA) (human, UniProt P06731 35-685). The experiment in a line: colorimetric antibody-aptamer sandwich assay; MOF-grafted tetrahedron 25 ug/mL; CEA 20 ng/mL; antibody-captured CEA; Colorimetric sandwich assay: TMB 2 mM, H2O2 0.2 M, detection time 20 min; binding buffer, pH and temperature not given in the material (storage in PBS at 37 C). The settings on record: protein: commercial; label: grafted on PCN-222(Fe) MOF via 5' phosphates (peroxidase mimic); DNA tetrahedron of 4 strands with single-stranded 5' aptamer extension on strand D.
Sequence of carcinoembryonic antigen (CEA) (P06731 35-685): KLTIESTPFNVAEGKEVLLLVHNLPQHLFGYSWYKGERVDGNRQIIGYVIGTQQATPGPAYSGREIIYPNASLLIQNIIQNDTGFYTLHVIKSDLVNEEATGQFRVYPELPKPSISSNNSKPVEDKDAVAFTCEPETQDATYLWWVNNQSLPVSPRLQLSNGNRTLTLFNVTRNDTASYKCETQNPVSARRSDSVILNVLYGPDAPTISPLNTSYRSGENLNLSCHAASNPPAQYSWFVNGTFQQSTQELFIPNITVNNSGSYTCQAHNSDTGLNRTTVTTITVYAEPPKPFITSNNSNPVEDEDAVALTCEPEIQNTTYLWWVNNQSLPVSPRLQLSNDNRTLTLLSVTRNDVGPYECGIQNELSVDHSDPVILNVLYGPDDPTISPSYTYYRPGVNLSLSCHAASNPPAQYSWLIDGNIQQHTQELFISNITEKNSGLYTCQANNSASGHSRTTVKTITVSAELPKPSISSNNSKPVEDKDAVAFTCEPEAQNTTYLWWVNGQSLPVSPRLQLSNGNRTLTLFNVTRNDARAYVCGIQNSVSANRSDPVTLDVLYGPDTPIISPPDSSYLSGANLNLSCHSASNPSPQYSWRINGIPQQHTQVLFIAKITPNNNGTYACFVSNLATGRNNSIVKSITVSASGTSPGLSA

B1: CEAapt-TDN (strands D+A+B+C) on PCN-222(Fe) MOF (structured_DNA)
DNA 1: ATACCAGCTTATTCAATTTTTTTTACATTCCTAAGTCTGAAACATTACAGCTTGCTACACGAGAAGAGCCGCCATAGTA
DNA 2: TATCACCAGGCAGTTGACAGTGTAGCAAGCTGTAATAGATGCGAGGGTCCAATAC
DNA 3: TCAACTGCCTGGTGATAAAACGACACTACGTGGGAATCTACTATGGCGGCTCTTC
DNA 4: TTCAGACTTAGGAATGTGCTTCCCACGTAGTGTCGTTTGTATTGGACCCTCGCAT
modifications: 5' phosphate on strands A, B and C
For the molecule B1, the binding result was “binds”.
